Consider 18 sequences from a protein production outcome set (Wang et al. 2014).

The data set in a line: label from the status in PepcDB records.

In the case of “MVKSYQRFEQAAAFGVIASNANCVWIPASSGNSNGSGPGQLITSALEDVNIWDIKTGDLVSKLSDGLPPGASDARGAKPAECTYLEAHKDTDLLAVGYADGVIKVWDLMSKTVLLNFNGHKAAITLLQFDGTGTRLISGSKDSNIIVWDLVGEVGLYKLRSHKDSITGFWCQGEDWLISTSKDGMIKLWDLKTHQCIETHIAHTGECWGLAVKDDLLITTGTDSQVKIWKLDIENDKMGGKLTEMGIFEKQSKQRGLKIEFITNSSDKTSFFYIQNADKTIETFRIRKEEEIARGLKKREKRLKEKGLTEEEIAKSIKESYSSFILHPFQTIRSLYKIKSASWTTVSSSKLELVLTTSSNTIEYYSIPYEKRDPTSPAPLKTHTIELQGQRTDVRSIDISDDNKLLATASNGSLKIWNIKTHKCIRTFECGYALTCKFLPGGLLVILGTRNGELQLFDLASSSLLDTIEDAHDAAIWSLDLTSDGKRLVTGSADKTVKFWDFKVENSLVPGTKNKFLPVLKLHHDTTLELTDDILCVRVSPDDRYLAISLLDNTVKVFFLDSMKFYLSLYGHKLPVLSIDISFDSKMIITSSADKNIKIWGLDFGDCHKSLFAHQDSIMNVKFLPQSHNFFSCSKDAVVKYWDGEKFECIQKLYAHQSEVWALAVATDGGFVVSSSHDHSIRIWEETEDQVFLEEEKEKELEEQYEDTLLTSLEEGNGDDAFKADASGEGVEDEASGVHKQTLESLKAGERLMEALDLGIAEIEGLEAYNRDMKLWQRKKLGEAPIKPQGNAVLIAVNKTPEQYIMDTLLRIRMSQLEDALMVMPFSYVLKFLKFIDTVMQNKTLLHSHLPLICKNLFFIIKFNHKELVSQKNEELKLQINRVKTELRSALKSTEDDLGFNVQGLKFVKQQWNLRHNYEFVDEYDQQEKESNSARKRVFGTVI”, the protein production result is given as “failed”.

As to “MVKTFRQREEDIVRCNRCGFCEEVCPTYKATGEEFSLARGRNRLMRQSMEGKLDLTKEPEINQHIYSCLLCGACVAACPSSVITDTLIKTARAEITRAKGQPFPIRMALRGVLANQRRLTLGAKVLRFYQRSGARWLARHIGFLNLMGSLGKAEGLLPAIPEKTLRVQLPQLLKKPMKPRHKVAYFAGCMINNFFTAVGEATLRVYQENDIEVVVPTSNCCGIPHEAYGDIEMQIKLAKENLDAFSRYEVEAIVTDCASCAHGLHSYAELLQDDPHYGPLAAQLAAKVKDASQYLVEIGFKKEMGPVNATVTYHDPCHAARGLKVKEQPREILKSIPGVKFVEMNESDWCCGGAGSYNVTHYELSRKILARKMDNFKKTGAEYLATSCPACLMQLAHGLDVYRLSGKAIHVMQILDQAYQNRAVRSKAKAG”, the protein production result is “failed”.

Turning to “MVKVAHVQLSSCCGCLVSLADTYEKLLDVLGAIDLVYSQTLADVREVPDDVDIILLEGSVCLSDHHAMEVALDSRKKAKILVALGACAATGNVTRFSKGNQPSKPVHDAFAPLTEVVKCDLAIPGCPPSPESIVAVVLAALNGDMEYLEPYAELAKYGSEACGCDLITKVINKSLCMGCGSCAAACPTRAVSMDAGRPLVDKEICIKCGSCSVQCPRIRFPDLIEKIE”, the protein production entry is recorded as “failed”.

In the case of “MVKVLILGQGYVASTFVAGLEKLRKGEIEPYGVPLARELPIGFEDIKIVGSYDVDRAKIGKKLSEVVKQYWNDVDSLTSDPEIRKGVHLGSVRNLPIEAEGLEDSMTLKEAVDTLVKEWTELDPDVIVNTCTTEAFVPFGNKEDLLKAIENNDKERLTATQVYAYAAALYANKRGGAAFVNVIPTFIANDPAFVELAKENNLVVFGDDGATGATPFTADVLSHLAQRNRYVKDVAQFNIGGNMDFLALTDDGKNKSKEFTKSSIVKDILGYDAPHYIKPTGYLEPLGDKKFIAIHIEYVSFNGATDELMINGRINDSPALGGLLVDLVRLGKIALDRKEFGTVYPVNAFYMKNPGPAEEKNIPRIIAYEKMRIWAGLKPKWL”, the protein production entry was “not failed”.

In the case of “MVLFVDFLLEWLEMMRTRVRETTYASYNSGIRQSIIPYFMDKKLTLTDIEENPKYLQDFYQHELSKGLSPNSVLRRHANIRKALQHAFHLGLIKSNPADRIERPKKQLEHHHHHH”, the protein production entry is given as “failed”.

As for “MVLGEFAPWRLWSLAGSAKDWRGSKQPRAMTDLVTNQAWTLIDNGRAADALRLTTGPVALPQASAGLLMAHAAALKALGRTDEALTFNRRAVARAPGDRFSWYNLAATLGDLALDDEAEGAARKTIALGLDVPEVRLVLGKALQGLHRYDEAEATFVRALAARPSDATVHLNLAQLRWMRSGRSDEALAPLDAAIARHPADVTLRTIRSNVLTFAGDHAGADATLEDALTRAPGDLAVRIAAARAAGAVGDRARMLAHAREAARLAPGALESQTVLCEALLAAGQADVAARTAEALVAAAPDDQYALVLRNTAWRITGDAQGDLFRDYAALVRTDRLETPEGWDSLDAFLDALRDRMLELHDLKTHPLNQSLRGGSQVPSLDRSRDPLVQAFFACAHKAVARYIEALGAGEDPIRRRRASDFAFAGGWSVRLRSEGFHADHVHPRGWISSAFYLDLPGRFDDETTRAGWLRFGRPGCLTEPALEAEHFIKPERGTLALFPSCLWHGTQPFTDADHRLTIAFDVVPR”, the protein production result was “failed”.

Turning to “MVLLTMTKRLFKGLLAVSLAVSLHGGEVKEKKPVKPVKEDPQELAAKRVEAFSRFSNVVSEIEKKYVDKISISEIMTKAIEGLLSNLDAHSAYLNEKKFKEFQAQTEGEFGGLGITVGMRDGVLTVIAPLEGTPAYKAGVKSGDNILKINNESTLSMSIDDAINLMRGKPKTPIQITVVRKNEPKPLVFNIIRDIIKLPSVYVKKIKETPYLYVRVSGFDKNVTKSVLEGLKANPKAKGIVLDLRGNPGGLLNQAVGLSNLFIKEGVLVSQKGKNKEENLEYKANGRAPYTNLPIAVLVNGGSASASEIVAGALQDHKRAVIIGEKTFGKGSVQMLLPVNKDEAIKITTARYYLPSGRTIQAKGITPDIVIYPGKVPENENKFSLKEADLKHHLEQELKKIDDKTPNSKEADKDKKNEEEKEITPKMINDDIQLKTAIDSLKTWSIVDEKMDEKAPKKK”, the protein production entry was “failed”.

Consider “MVLPSGLALPPLEYTVALLAGTLVVTALLYALEPPINQRTVVALTPWMALGGALHAFHQPPIEAYRPVVTPLFGAPAVYLTTFVTLGVVWVTLTLFSVRRGHSETISRNLGYIGIGLLTVLLVIAVVMALESGLLGLIWPTIAVIVATVVTAVTVLAVALWRTPVVVRMRYAAPTVVFAHMLDGVSTAVGADVIGITERTPIPARIMEFAGTLPTAPYLGKGWLFVFVKLLVAIGVVFLLDDYLEEDPVEASLLLAVVTAVGIGPATNNIVLFLFSPV”, for which the protein production entry is “failed”.

For the sequence “MVLPSSHRILVVDDNAVTRYSVRRVLEHHQFVVEEAGTGGEGLVRLAAEAFAAVVLDVNLPDMSGFDIVRTLRAEPRTALLPVVHVSAASIATGDMITGLDAGADAYLIHPVDPNVLVATLRTLLRARNAEEALRLSEARFREIFEHIGAPIAVVDAQLHTQEANAAFQRLIGSATPCEAINVPGLDQCATVQALTAALGRRERWSGTLSILRDGAVRETEWRVSPYREPDLGLLFVEDVTEQRLREREQRQELDTATSELAHQIAERQRTEIQLLQAQKMEALGKLTGGIAHDFNNLLTSIISGLDMIQLAVESNRIERVPRLAEIATGSAHRAAALTQRMLAFARKQSLDAQPFDVNARVRSLEDMLRRSIGENIALELQLAEAPLVAIADANQLENVVLNLVINARDALQGHGTIRIQSAPHTAYNDPELEDGDYVAVNVIDDGSGIDPAILSQVFEPFFTTKPIGEGTGLGLSMTYGFARQSGGTARITSTLGSGTTVALLLPRGLTVGEALPPPPPNAPRGRSQRILLVDDTDVVRMMVSEVLSDAGYHVIEAENADGALAQLRADAQIDMVVSDVGLPGMNGRDMADVARDLRPGLPILFITGYAENAATRQEFLAEGMALLPKPFSLNDLLNTVSRMLG”, the protein production result was “failed”.

As to “MVLWHKKDRKLGKHLRSVLSVSNNSPLSPAAFSGFKAVIKGIEKERIAGVGKTEGIKNEKTAGVGKTEGIEKERIAGVGKTEGIENTEGTEKAGEIKNNEKIKKAEETENILEIEKTFRNKKKQGVSKGDVDKENSTAFLYNTEAKKLTFHGNIYEILPLFLNVRNLYASLPFFEELQACAERLEKDPQDATALFQKAVLMYKARRFETALQLTAKVLKIIPDDHRVWYNRGVILSEMGRLEEAIAAYDRTIELEPAFEIAWDNKGVVLARLGRFEEALEIYDKILQKFPEYAEAWAGKGSIFLALDREEEALEAYSSALRIRPEYLEALTSTGSLLSRLGRYEESLKIYDKALQLVPKDPRLLAAKGFVLSEMGKQEEALENCNRALELQPGFVPALEIKVRILSEIGRQKNKTSQ”, the protein production entry is on record as “failed”.

For “MVMLNTHVVECLQACGRCAAACDYCASSCLREGHGADMARCIALDLDCAAACRLCAAMMARESEFSTHMCTLCARICEVCGDECARHEPRHCQECATACHACASACRAMARPLEHHHHHH”, the protein production entry is “not failed”.

Consider “MVNDVEVTVTYTASDEDATVTYVDDDKGGAQVGDIVTVTGKTDDSTTYTVTIPDGYEYVGTDGGVVSSDGKTVTITFTADDSDNVVIHLKHGLEHHHHHH”, for which the protein production entry is “not failed”.

Regarding “MVNEVQGIGIPTSHTSVQTTPTKEISRTNTINTVDESKTTIDPDQYKPKLELLSERLNEEMKRIGTDINFSYNDTIKGLVVSVKDANGDKVIREIPSKEAVELMQRMRDVIGIIFDKRG”, the protein production result is recorded as “failed”.

Take “MVNGSPHEKGCTYTALTEVAKTLNEEGIDTEIFWIGKKPLTGCTACKSCTKTGRCAFNDRANDFLDIAKGADGFIFGSPVHYASATGAITSFMDCVFYSDLLGGRQSFYLKPAATVISARRAGTTTTFDQLNKYFTLSEMPVISSRYWNMVHGAKPEDVKKDLEGLQIMRVLARNMAWFLKCKEAGMKAGVPLPVKEERMSTNFIRE”: the protein production result was “failed”.

For “MVNHGYPLGRSLLSIAMAMLGALSLVFPLPLLTQDMVDSERSLPLLGDHPLEERLIDGMDEGIKKNYRGAIAIFTELILLDPSYADAYFNRGIARARIADYQGAITDHSQAITLNPQLAEAYKARGKIYWQLGEQAQAIADLEAALALFSDQENLVSQREAWEQLQTWHGNP”, the protein production result is “failed”.

“MVNTNLEELRTQVDQLNIDLLELISKRANLVQEIGKIKGTQGSLRFDPLREREMLNTILAANEGPFEDSTVQKLFKEIFKAGLELQEEDHSKALLVSRKNKKEDTIVTVKGLPIGNGEPVFVFGPCSVESYEQVAAVAESIKAKGLKLIRGGAFKPRTSPYDFQGLGLEGLKILKRVSDEYGLGVISEIVTPADIEVALDYVDVIQIGARNMQNFELLKAAGRVDKPILLKRGLSATIEEFIGAAEYIMSQGNGKIILCERGIRTYEKATRNTLDISAVPILKKETHLPVMVDVTHSTGRKDLLLPCAKAALAIEADGVMAEVHPDPAVALSDSAQQMDIPEFEEFWNAILASNLVPHKIK”: the protein production result is “not failed”.

“MVNVDGKREEDEEVIEVEGMGANKSARMLERLHVVHQYVARWVYSHGIPFNAIANDDLRRMLEVAGQFGPGVTPPSQYQLREPLLKEEVVRMKGLMEEQEDEWRVNGCSVTTDSWSDRKRRSIMNLCINCKEGTMFLSSKDCFDDSHTGEYIFAYVNEYCIKNLGGDHVVQVVTNNATNNITAAKLLKEVRPTIFWTFCATHTINLMVEGISKLAMSDEIVKMAKAFTIFIYAHHQTLSMMRSFTKRRDIVRPGIIGFASAFRTLKSLVEKEENLKVKRKKKKKLSKATTMVVL”: the protein production entry was “failed”.

For “MVPAPEAIRQALQERLLARLDHPDPLYRDLLQDYPRRGGKMLRGLLTVYSALAHGAPLEAGLEAATALELFQNWVLVHDDIEDGSEERRGRPALHRLHPMPLALNAGDAMHAEMWGLLAEGLARGLFPPEVLLEFHEVVRRTAYGQHLDLLWTLGGTFDLRPEDYFRMVAHKAAYYTAVAPLRLGALLAGKTPPAAYEEGGLRLGTAFQIVDDVLNLEGGEAYGKERAGDLYEGKRTLILLRFLEEAPPEERARALALLALPREAKPEAEVGWLLERLLASRALAWAKAEAKRLQAEGLALLEAAFQDLPGKEALDHLRGLLAALVERRA”, the protein production result is on record as “not failed”.
